Results reported in the supplement of paper PMC9112550, “Optimization of the antimicrobial peptide Bac7 by deep mutational scanning” (BMC Biology, 2022).

Test system: Escherichia coli TOP10
Assay: shrunken log2 fold change of peptide-encoding DNA abundance (4.5 h post-induction vs induction); higher = less antimicrobial activity (less host growth inhibition)
Details: time post-induction: 4.5 h; library: site-saturation at positions 5, 18, 19, 20
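Further: peptides expressed intracellularly from a pBAD plasmid library in pooled LB shake-flask culture, induced with 0.3% L-arabinose, DNA abundance read by NGS, three biological replicates, DESeq2 with apeglm shrinkage.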

Sequence	shrunken log2 fold change
RRIRQRPPRLPRPRPRPLDCPRP	-0.221
RRIRQRPPRLPRPRPRPLDGPRP	0.237
RRIRQRPPRLPRPRPRPLDQPRP	-0.635
RRIRQRPPRLPRPRPRPLEHPRP	-0.109
RRIRQRPPRLPRPRPRPLELPRP	0.0289
RRIRQRPPRLPRPRPRPLGKPRP	-0.0227
RRIRQRPPRLPRPRPRPLGPPRP	0.23
RRIRQRPPRLPRPRPRPLGTPRP	0.139
RRIRQRPPRLPRPRPRPLGVPRP	0.0233
RRIRQRPPRLPRPRPRPLHEPRP	0.149
RRIRQRPPRLPRPRPRPLKEPRP	-0.0182
RRIRQRPPRLPRPRPRPLKVPRP	-0.102
RRIRQRPPRLPRPRPRPLMMPRP	-0.0501
RRIRQRPPRLPRPRPRPLNWPRP	-0.133
RRIRQRPPRLPRPRPRPLPKPRP	-0.226
RRIRQRPPRLPRPRPRPLPMPRP	0.0747
RRIRQRPPRLPRPRPRPLQEPRP	-0.129
RRIRQRPPRLPRPRPRPLRDPRP	0.082
RRIRQRPPRLPRPRPRPLSDPRP	-0.0651
RRIRQRPPRLPRPRPRPLSWPRP	0.485
RRIRQRPPRLPRPRPRPLTIPRP	-0.375
RRIRQRPPRLPRPRPRPLWKPRP	-0.0262
RRIRQRPPRLPRPRPRPLYLPRP	-0.511
RRIRQRPPRLPRPRPRPMDMPRP	-0.274
RRIRQRPPRLPRPRPRPMFAPRP	0.0682

Sequence	shrunken log2 fold change
RRIRQRPPRLPRPRPRPMFLPRP	-0.38
RRIRQRPPRLPRPRPRPMFYPRP	-0.503
RRIRQRPPRLPRPRPRPMHKPRP	0.0742
RRIRQRPPRLPRPRPRPMIQPRP	0.0718
RRIRQRPPRLPRPRPRPMMCPRP	-0.0115
RRIRQRPPRLPRPRPRPMNLPRP	-0.169
RRIRQRPPRLPRPRPRPMNTPRP	0.0106
RRIRQRPPRLPRPRPRPMPMPRP	-0.00149
RRIRQRPPRLPRPRPRPMQCPRP	-0.409
RRIRQRPPRLPRPRPRPMQKPRP	0.0524
RRIRQRPPRLPRPRPRPMQPPRP	0.0113
RRIRQRPPRLPRPRPRPMRCPRP	0.054
RRIRQRPPRLPRPRPRPMRVPRP	0.189
RRIRQRPPRLPRPRPRPMSIPRP	-0.00929
RRIRQRPPRLPRPRPRPMSSPRP	-0.0871
RRIRQRPPRLPRPRPRPMWVPRP	0.551
RRIRQRPPRLPRPRPRPMYLPRP	-0.415
RRIRQRPPRLPRPRPRPNCAPRP	0.00462
RRIRQRPPRLPRPRPRPNFDPRP	-0.347
RRIRQRPPRLPRPRPRPNFEPRP	-0.00188
RRIRQRPPRLPRPRPRPNHIPRP	-0.526
RRIRQRPPRLPRPRPRPNHMPRP	-0.422
RRIRQRPPRLPRPRPRPNHQPRP	-0.0841
RRIRQRPPRLPRPRPRPNKHPRP	-0.622
RRIRQRPPRLPRPRPRPNKYPRP	-0.686

Sequence	shrunken log2 fold change
RRIRQRPPRLPRPRPRPNLKPRP	-0.196
RRIRQRPPRLPRPRPRPNLRPRP	0.0769
RRIRQRPPRLPRPRPRPNMHPRP	-0.34
RRIRQRPPRLPRPRPRPNMIPRP	-0.209
RRIRQRPPRLPRPRPRPNNLPRP	-0.401
RRIRQRPPRLPRPRPRPNPQPRP	0.129
RRIRQRPPRLPRPRPRPNQVPRP	-0.0722
RRIRQRPPRLPRPRPRPNQYPRP	-0.529
RRIRQRPPRLPRPRPRPNRVPRP	-0.107
RRIRQRPPRLPRPRPRPNSPPRP	-0.0178
RRIRQRPPRLPRPRPRPNSSPRP	-1.14
RRIRQRPPRLPRPRPRPNTGPRP	-0.766
RRIRQRPPRLPRPRPRPNTLPRP	0.013
RRIRQRPPRLPRPRPRPNTVPRP	-0.369
RRIRQRPPRLPRPRPRPNVIPRP	-0.0189
RRIRQRPPRLPRPRPRPNYIPRP	-0.445
RRIRQRPPRLPRPRPRPNYSPRP	-0.397
RRIRQRPPRLPRPRPRPPAPPRP	0.399
RRIRQRPPRLPRPRPRPPDSPRP	0.377
RRIRQRPPRLPRPRPRPPDVPRP	0.124
RRIRQRPPRLPRPRPRPPEQPRP	0.00242
RRIRQRPPRLPRPRPRPPERPRP	0.0424
RRIRQRPPRLPRPRPRPPEVPRP	0.0121
RRIRQRPPRLPRPRPRPPFYPRP	-0.0349
RRIRQRPPRLPRPRPRPPGSPRP	0.111

Sequence	shrunken log2 fold change
RRIRQRPPRLPRPRPRPPHCPRP	0.0459
RRIRQRPPRLPRPRPRPPHHPRP	0.972
RRIRQRPPRLPRPRPRPPHKPRP	1.25
RRIRQRPPRLPRPRPRPPHPPRP	0.548
RRIRQRPPRLPRPRPRPPISPRP	-0.187
RRIRQRPPRLPRPRPRPPKRPRP	0.487
RRIRQRPPRLPRPRPRPPLFPRP	0.838
RRIRQRPPRLPRPRPRPPLPPRP	0.424
RRIRQRPPRLPRPRPRPPMNPRP	-0.299
RRIRQRPPRLPRPRPRPPPPPRP	0.822
RRIRQRPPRLPRPRPRPPQPPRP	1.1
RRIRQRPPRLPRPRPRPPRAPRP	0.552
RRIRQRPPRLPRPRPRPPTGPRP	0.0124
RRIRQRPPRLPRPRPRPPTHPRP	0.106
RRIRQRPPRLPRPRPRPPTTPRP	-0.0101
RRIRQRPPRLPRPRPRPPVDPRP	-0.19
RRIRQRPPRLPRPRPRPPVHPRP	0.164
RRIRQRPPRLPRPRPRPPWNPRP	0.0241
RRIRQRPPRLPRPRPRPQCWPRP	-0.0996
RRIRQRPPRLPRPRPRPQDHPRP	-0.408
RRIRQRPPRLPRPRPRPQEHPRP	-0.942
RRIRQRPPRLPRPRPRPQEVPRP	-0.171
RRIRQRPPRLPRPRPRPQFEPRP	-0.0143
RRIRQRPPRLPRPRPRPQGLPRP	0.0739
RRIRQRPPRLPRPRPRPQGMPRP	0.0331

Sequence	shrunken log2 fold change
RRIRQRPPRLPRPRPRPQHMPRP	0.0284
RRIRQRPPRLPRPRPRPQHSPRP	-0.062
RRIRQRPPRLPRPRPRPQICPRP	-0.229
RRIRQRPPRLPRPRPRPQIRPRP	-0.307
RRIRQRPPRLPRPRPRPQKEPRP	-0.00507
RRIRQRPPRLPRPRPRPQKPPRP	0.0718
RRIRQRPPRLPRPRPRPQKVPRP	-0.0255
RRIRQRPPRLPRPRPRPQLEPRP	0.307
RRIRQRPPRLPRPRPRPQLYPRP	0.119
RRIRQRPPRLPRPRPRPQMQPRP	0.131
RRIRQRPPRLPRPRPRPQNNPRP	-0.54
RRIRQRPPRLPRPRPRPQQEPRP	0.0811
RRIRQRPPRLPRPRPRPQQSPRP	-0.0224
RRIRQRPPRLPRPRPRPQRPPRP	0.0996
RRIRQRPPRLPRPRPRPQRWPRP	0.178
RRIRQRPPRLPRPRPRPQRYPRP	-0.0112
RRIRQRPPRLPRPRPRPQSDPRP	-0.00542
RRIRQRPPRLPRPRPRPQSFPRP	-0.0179
RRIRQRPPRLPRPRPRPQTIPRP	-0.16
RRIRQRPPRLPRPRPRPQTLPRP	-0.319
RRIRQRPPRLPRPRPRPQWSPRP	0.282
RRIRQRPPRLPRPRPRPQWTPRP	-0.126
RRIRQRPPRLPRPRPRPQWWPRP	0.0549
RRIRQRPPRLPRPRPRPRAMPRP	0.0219
RRIRQRPPRLPRPRPRPRDHPRP	0.423

Sequence	shrunken log2 fold change
RRIRQRPPRLPRPRPRPRFDPRP	-0.0137
RRIRQRPPRLPRPRPRPRFGPRP	0.198
RRIRQRPPRLPRPRPRPRFIPRP	-0.398
RRIRQRPPRLPRPRPRPRGGPRP	0.484
RRIRQRPPRLPRPRPRPRGQPRP	0.726
RRIRQRPPRLPRPRPRPRHKPRP	0.0456
RRIRQRPPRLPRPRPRPRINPRP	-0.184
RRIRQRPPRLPRPRPRPRKPPRP	0.0318
RRIRQRPPRLPRPRPRPRKWPRP	0.832
RRIRQRPPRLPRPRPRPRMWPRP	-0.429
RRIRQRPPRLPRPRPRPRNWPRP	-0.0692
RRIRQRPPRLPRPRPRPRQFPRP	-0.121
RRIRQRPPRLPRPRPRPRQIPRP	0.0413
RRIRQRPPRLPRPRPRPRRCPRP	0.271
RRIRQRPPRLPRPRPRPRRYPRP	0.112
RRIRQRPPRLPRPRPRPRTIPRP	0.122
RRIRQRPPRLPRPRPRPRVVPRP	0.0149
RRIRQRPPRLPRPRPRPRWEPRP	0.0653
RRIRQRPPRLPRPRPRPRYSPRP	-0.192
RRIRQRPPRLPRPRPRPSAIPRP	-0.399
RRIRQRPPRLPRPRPRPSCFPRP	-0.529
RRIRQRPPRLPRPRPRPSCTPRP	-0.167
RRIRQRPPRLPRPRPRPSDGPRP	-0.0586
RRIRQRPPRLPRPRPRPSEIPRP	-0.0356
RRIRQRPPRLPRPRPRPSELPRP	-0.159
